Measurements reported in patent US20140044711A1.

How the values were obtained:
[1] = target: Fc receptors on the surface of THP1 cells (Fc bearing human myeloid/monocytic cell line) (human); experiment: FACS, mean fluorescence intensity of AF-647 labeled protein bound to THP1 cells
[2] = target: Fc receptors on the surface of THP1 cells (Fc bearing human myeloid/monocytic cell line) (human); experiment: cell-based or functional assay

“RSLV-132 (wthRNase-SCC-mthIgG1 P238S P331S) (Fc fusion)” was tested, and the fold reduction in Fc receptor binding relative to RSLV-124 [1] was > 4 fold.
In the case of “RNase-Fc fusion protein with a mutant Fc (P238S, P331S) (mtRNasemgIgG)”, the cell death of THP1 cells by FACS, RNase Fc mutant compared to wild type [2] is reported as 3 to 5 fold and the fold decrease in cell death of THP1 cells (Annexin V binding and propidium iodide binding), RNase-Fc mutant compared to RNase-wild type Fc fusion protein [2] is reported as 3 fold.
